Entries after “also recorded” stand apart in the source; their conditions may differ.
Molecular target: T1, βKlotho-FGF21 (Mus musculus, UniProt Q99N32)
T1 construct: the ectodomain of murine βKlotho (F53 to L995) was expressed in HEK293 cells; FLAG (C); made in house; host or cells: HEK293 (βKlotho ectodomain); E. coli (FGF21)
T1 sequence (Q99N32 53-995): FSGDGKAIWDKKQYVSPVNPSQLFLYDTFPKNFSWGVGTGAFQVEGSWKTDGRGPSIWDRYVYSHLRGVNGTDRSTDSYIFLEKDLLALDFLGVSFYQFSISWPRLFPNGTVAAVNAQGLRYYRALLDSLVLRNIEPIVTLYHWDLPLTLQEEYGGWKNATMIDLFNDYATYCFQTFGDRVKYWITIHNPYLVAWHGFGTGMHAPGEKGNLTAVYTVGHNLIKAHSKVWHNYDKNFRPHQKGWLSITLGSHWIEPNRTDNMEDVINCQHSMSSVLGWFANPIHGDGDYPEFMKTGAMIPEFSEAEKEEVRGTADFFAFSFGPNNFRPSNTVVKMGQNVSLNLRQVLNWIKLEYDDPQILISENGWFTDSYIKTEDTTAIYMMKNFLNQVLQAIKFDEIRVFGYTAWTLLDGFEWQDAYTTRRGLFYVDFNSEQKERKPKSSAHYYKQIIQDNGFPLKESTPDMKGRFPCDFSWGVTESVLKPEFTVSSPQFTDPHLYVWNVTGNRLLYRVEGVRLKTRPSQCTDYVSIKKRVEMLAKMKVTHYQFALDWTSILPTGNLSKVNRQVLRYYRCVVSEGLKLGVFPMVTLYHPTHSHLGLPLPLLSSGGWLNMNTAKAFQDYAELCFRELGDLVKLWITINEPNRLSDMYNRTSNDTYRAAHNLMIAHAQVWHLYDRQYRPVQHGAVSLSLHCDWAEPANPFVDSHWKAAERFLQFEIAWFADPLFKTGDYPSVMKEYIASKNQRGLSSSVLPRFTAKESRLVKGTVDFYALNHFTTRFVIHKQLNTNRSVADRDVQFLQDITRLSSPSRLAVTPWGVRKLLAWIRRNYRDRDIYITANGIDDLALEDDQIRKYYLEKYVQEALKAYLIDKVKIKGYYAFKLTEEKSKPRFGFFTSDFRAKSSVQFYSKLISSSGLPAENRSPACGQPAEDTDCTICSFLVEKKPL
Test: SPR specificity: βKlotho binding to immobilized FGF21^29-209
Parameters: species or system murine βKlotho, human FGF21
Settings: molar ratio of 2:1 to βKlotho

B1: FGF23^180-251: 72-amino acid C-terminal tail of human FGF23 (S180 to I251), expressed in E. coli (protein, listed as Homo sapiens)
chain: SAEDDSERDPLNVLKPRARMTPAPASCSQELPSAEDNSPMASDPLGVVRGGRVNTHAGGTGPEGCRPFAKFI
  inhibition of βKlotho binding to immobilized FGF21: failed to inhibit; also recorded: no inhibition

— patent publication US8889621B2, “Inhibiting binding of FGF23 to the binary FGFR-Klotho complex for the treatment of hypophosphatemia” (New York University, priority 2009, dated 2014)
